Results as given in patent US20260176358A1 (JIANGSU HENGRUI PHARMACEUTICALS, published 2026).
Positions count from the first letter of the chain named.

T1: human CGRP (human, UniProt P06881 83-119)
T1 peptide (looked up): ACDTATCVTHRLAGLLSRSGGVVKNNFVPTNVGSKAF

T2: rat CGRP (rat, UniProt P01256 83-119)
T2 peptide (looked up): T1 peptide (looked up) with A1S, D3N, N25D, K35E

B1: C21H2L2 (antibody, human IgG1, kappa, V domains shown)
VH: EVQLVQSGAEVKKPGASVKVSCKASGYTFTDYYMNWVRQAPGQRLEWIGDINPNQGGTNYNQKFKGRATLTVDKSASTAYMELSSLRSEDTAVYYCASIIIVPNYFDYWGQGTTVTVSS
VL: DIQMTQSPSSLSASVGDRVTITCKASQNVDTNVAWFQQKPGKSPKALIYSASYRYSGVPSRFSGSGSGTDFTLTISSLQPEDFATYYCQQYNNYPYTFGGGTKVEIKR
B2: C28H1L1 (antibody, human IgG1, kappa, V domains shown)
VH: B1 VH with I48M, Q55N, G56V, G57V, N59T, A68V, L70I, N104D
VL: B1 VL with L11V, D30G, T31S, F36Y, N93S
B3: C9H3L1 (antibody, human IgG1, kappa, V domains shown)
VH: EVQLVQSGAEVKKPGASVKVSCKASGYTFTDYYMNWVRQAPGQRLEWMGVINPYQGRTTYNRKFKGRVTITVDKSASTAYMELSSLRSEDTAVYYCASLLIRPHYFDYWGQGTTVTVSS
VL: B1 VL with D30G, F36Y, F83V, Y87H, N93F, G100Q, V104L
B4: C28H4L1 (antibody, human IgG1, kappa, V domains shown)
VH: B1 VH with G57V, N59T, N104D
VL: B1 VL with L11V, D30G, T31S, F36Y, N93S
B5: C9H5L1 (antibody, human IgG1, kappa, V domains shown)
VH: B3 VH with Q55S
VL: B1 VL with D30G, F36Y, F83V, Y87H, N93F, G100Q, V104L
B6: C21H1L1 (antibody, human IgG1, kappa, V domains shown)
VH: B1 VH with Q55N, G56V
VL: B1 VL with S43A, A46S
B7: C28H7L1 (antibody, human IgG1, kappa, V domains shown)
VH: B1 VH with Q55T, G57V, N59T, N104D
VL: B1 VL with L11V, D30G, T31S, F36Y, N93S
B8: C28H5L1 (antibody, human IgG1, kappa, V domains shown)
VH: B1 VH with Q55S, G57V, N59T, N104D
VL: B1 VL with L11V, D30G, T31S, F36Y, N93S
B9: C9H1L1 (antibody, human IgG1, kappa, V domains shown)
VH: B3 VH with Q55N, G56V
VL: B1 VL with D30G, F36Y, F83V, Y87H, N93F, G100Q, V104L
B10: C9H2L1 (antibody, human IgG1, kappa, V domains shown)
VH: B3 VH with M48I, Q55N, G56V, V68A, I70L
VL: B1 VL with D30G, F36Y, F83V, Y87H, N93F, G100Q, V104L
B11: C9H4L1 (antibody, human IgG1, kappa, V domains shown)
VH: B3 VH with M48I, V68A, I70L
VL: B1 VL with D30G, F36Y, F83V, Y87H, N93F, G100Q, V104L
B12: C28H3L1 (antibody, human IgG1, kappa, V domains shown)
VH: B1 VH with I48M, G57V, N59T, A68V, L70I, N104D
VL: B1 VL with L11V, D30G, T31S, F36Y, N93S
B13: C21H1L2 (antibody, human IgG1, kappa, V domains shown)
VH: B1 VH with Q55N, G56V
VL: B1 VL
B14: C21H4L1 (antibody, human IgG1, kappa, V domains shown)
VH: B1 VH with Q55T
VL: B1 VL with S43A, A46S
B15: C9H6L1 (antibody, human IgG1, kappa, V domains shown)
VH: B3 VH with M48I, Q55S, V68A, I70L
VL: B1 VL with D30G, F36Y, F83V, Y87H, N93F, G100Q, V104L
B16: C21H4L2 (antibody, human IgG1, kappa, V domains shown)
VH: B1 VH with Q55T
VL: B1 VL
B17: C21H3L1 (antibody, human IgG1, kappa, V domains shown)
VH: B1 VH with I48M, Q55S, A68V, L70I
VL: B1 VL with S43A, A46S
B18: C9H7L1 (antibody, human IgG1, kappa, V domains shown)
VH: B3 VH with Q55T
VL: B1 VL with D30G, F36Y, F83V, Y87H, N93F, G100Q, V104L
B19: C1H1L1 (antibody, human IgG1, kappa, V domains shown)
VH: EVQLVQSGAEVKKPGSSVKVSCKASGYTFSTSWMNWVRQAPGQGLEWMGQIYPGDGYTNYSGKFRGRVTITADKSTSTAYMELSSLRSEDTAVYYCAGDYEALWGQGTTVTVSS
VL: DIVMTQTPLSLPVTPGEPASISCRSSQSLVHSNGNTYFHWYLQKPGQSPQLLIYEVSNRFSGVPDRFSGSGSGTDFTLKISRVEAEDVGVYYCSQSTHVPFTFGQGTKLEIKR
B20: C1H3L2 (antibody, human IgG1, kappa, V domains shown)
VH: B19 VH with S61N, G62V
VL: B19 VL with N33S
B21: C1H2L1 (antibody, human IgG1, kappa, V domains shown)
VH: B19 VH with S61Q
VL: B19 VL
B22: C1H1L2 (antibody, human IgG1, kappa, V domains shown)
VH: B19 VH
VL: B19 VL with N33S
B23: PL-1 (bispecific antibody)
chain 1: not shown
chain 2: DIVLTQSPASLAVSPGQRATITCRASESVSIHGTHLMHWYQQKPGQPPKLLIYAASKLESGVPARFSGSGSGTDFTLTINPVEAEDTANYYCQQSFEDPLTFGQGTKLEIKGGGGSGIPPKIECLPIDISIDEGKVLTVASAFTGEPTPEVTWSTGGRKIHSQEQGRFHIENTDDLTTLIIKDVQKQDGGLYTLTLRNEFGSDSATVNIHIRSI
chain 3: not shown
chain 4: not shown
B24: PL-5 (bispecific antibody)
chain 1: not shown
chain 2: B23 chain 2 with L176S, I180T
chain 3: not shown
chain 4: not shown
B25: PL-7 (bispecific antibody)
chain 1: not shown
chain 2: B23 chain 2 with A142C, L176S, I180T
chain 3: not shown
chain 4: not shown
B26: PL-4 (bispecific antibody)
chain 1: not shown
chain 2: B23 chain 2 with A142C, L176S, I180T
chain 3: not shown
chain 4: not shown
B27: PL-2 (bispecific antibody)
chain 1: not shown
chain 2: B23 chain 2 with L176S, I180T
chain 3: not shown
chain 4: not shown
B28: PL-3 (bispecific antibody)
chain 1: not shown
chain 2: B23 chain 2 with V136C, L176S, I180T
chain 3: not shown
chain 4: not shown
B29: PL-6 (bispecific antibody)
chain 1: not shown
chain 2: B23 chain 2 with V136C, L176S, I180T
chain 3: not shown
chain 4: not shown

Target: T1, human CGRP
Assay: ELISA, coated CGRP
Experimental: (§1) In this test example, the abilities of the chimeric antibodies and humanized antibodies of C1 #, C9 #, C21 #, and C28 #to bind to human CGRP and rat CGRP were assessed using ELISAs. Plates were coated with […] human CGRP and rat CGRP, respectively, and blocked, and the antibodies, serially diluted, were then added. The plates were incubated for 1 h and washed, and a horseradish peroxidase-labeled anti-human Fc secondary antibody was then added. After incubation, color development was performed. […] The plates were incubated for 1 h and washed, and the antibodies, serially diluted, were then added. The plates were incubated for 1 h and washed, and a horseradish peroxidase-labeled streptavidin secondary antibody was then added. After incubation, color development was performed.
For B1, the EC50 was 3.4 nM.
B2 showed an EC50 of 1.34 nM.
Binder B3 has an EC50 of 1.3 nM.
Work on B4 yielded an EC50 of 1.43 nM.
For B5, the EC50 was 1.29 nM.
In the case of B6, the EC50 is reported as 2.54 nM.
B7 showed an EC50 of 1.47 nM.
For B8, the EC50 was 1.58 nM.
B9 was tested, and the EC50 was 1.58 nM.
Work on B10 yielded an EC50 of 1.41 nM.
Work on B11 yielded an EC50 of 1.25 nM.
B12 showed an EC50 of 1.65 nM.
For B13, the EC50 was 2.57 nM.
With B14 the EC50 was 2.9 nM.
For B15, the EC50 was 1.33 nM.
B16 gave an EC50 of 2.8 nM.
B17 showed an EC50 of 3.57 nM.
With B18 the EC50 was 1.3 nM.
Work on B19 yielded an EC50 of 1.83 nM.
B20 showed an EC50 of 1.39 nM.
With B21 the EC50 was 2.61 nM.
B22 gave an EC50 of 2.72 nM.

Target: T2, rat CGRP
Assay: ELISA, coated CGRP
Experimental: as §1
For B1, the EC50 was 9.27 nM.
Binder B2 has an EC50 of 6.28 nM.
B3 was tested, and the EC50 was 4.27 nM.
Binder B4 has an EC50 of 6.45 nM.
In the case of B5, the EC50 is reported as 4.48 nM.
B6 was tested, and the EC50 was 3.86 nM.
B7 showed an EC50 of 2.72 nM.
B8 showed an EC50 of 3.72 nM.
With B9 the EC50 was 5.3 nM.
Binder B10 has an EC50 of 4.32 nM.
In the case of B11, the EC50 is reported as 4.2 nM.
Work on B12 yielded an EC50 of 3.97 nM.
With B13 the EC50 was 5.26 nM.
B14 gave an EC50 of 7.36 nM.
In the case of B15, the EC50 is reported as 3.13 nM.
In the case of B16, the EC50 is reported as 5.68 nM.
Work on B17 yielded an EC50 of 7.94 nM.
Binder B18 has an EC50 of 3.57 nM.
Binder B19 has an EC50 of 3.1 nM.
With B20 the EC50 was 1.97 nM.
For B21, the EC50 was 2.38 nM.
Binder B22 has an EC50 of 2.44 nM.

These binders were tested against hPDL1 (human, UniProt Q9NZQ7 19-238) (assay: ELISA of Test Example 4 of WO2021139758).
Chain of hPDL1 (Q9NZQ7 19-238 limits assumed): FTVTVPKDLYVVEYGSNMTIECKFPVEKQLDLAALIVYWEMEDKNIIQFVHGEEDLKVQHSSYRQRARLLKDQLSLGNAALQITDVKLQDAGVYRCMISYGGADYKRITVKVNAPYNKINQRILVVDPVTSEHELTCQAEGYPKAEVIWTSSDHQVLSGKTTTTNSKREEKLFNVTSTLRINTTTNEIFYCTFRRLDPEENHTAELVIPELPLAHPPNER
B23 gave an EC50 of 1.6 nM.
B24 was tested, and the EC50 was 0.7 nM.
In the case of B25, the EC50 is reported as 0.5 nM.
B26 was tested, and the EC50 was 0.7 nM.
B27 showed an EC50 of 0.5 nM.
B28 showed an EC50 of 0.6 nM.
B29 showed an EC50 of 0.8 nM.

The binders below were run against hCTLA4 (human, UniProt P16410 36-161) (assay: ELISA of Test Example 4 of WO2021139758).
Chain of hCTLA4 (P16410 36-161 limits assumed): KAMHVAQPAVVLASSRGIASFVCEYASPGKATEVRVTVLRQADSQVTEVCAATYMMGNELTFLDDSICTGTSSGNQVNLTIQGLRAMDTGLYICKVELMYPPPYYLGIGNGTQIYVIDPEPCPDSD
B23 showed an EC50 of 16.5 nM.
B24 showed an EC50 of 6.7 nM.
B25 showed an EC50 of 7.3 nM.
B26 was tested, and the EC50 was 6.5 nM.
In the case of B27, the EC50 is reported as 8 nM.
Work on B28 yielded an EC50 of 7.9 nM.
B29 was tested, and the EC50 was 5.3 nM.
